Measurements published in patent publication US20230074793A1 (Xencor, published 2023).

Target: PD1 (programmed cell death protein 1) (human, UniProt Q15116 25-288)
Assay: cell-based or functional assay

PD1 (programmed cell death protein 1), sequence (Q15116 25-288): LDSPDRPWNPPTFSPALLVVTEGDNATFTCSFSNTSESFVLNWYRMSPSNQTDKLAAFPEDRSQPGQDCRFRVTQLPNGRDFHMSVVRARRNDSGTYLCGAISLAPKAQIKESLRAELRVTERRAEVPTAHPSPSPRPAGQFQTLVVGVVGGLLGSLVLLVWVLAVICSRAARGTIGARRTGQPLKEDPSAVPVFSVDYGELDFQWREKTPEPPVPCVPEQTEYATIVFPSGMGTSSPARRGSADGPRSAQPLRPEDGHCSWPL

B1: XmAb®20717 (bispecific antibody, human IgG1, kappa)
heavy: not shown
scFv: EIVLTQSPATLSASPGERVTLTCRASQSVGNDVAWYQQKPGQAPRLLINYASHRYTGVPDRFTGSGYGTEFTLTISSVQSEDFGVYYCQQDFSSPRTFGGGTKVEIKGKPGSGKPGSGKPGSGKPGSEVQLVESGGGLVKPGGSLRLSCVASGFTFSNYWMNWVRQAPGKGLEWVAEIRLYSNNYATHYAESVKGRFTISRDDSKSTLYLQMNNLKTEDTGVYYCTRYYGNYGGYFDVWGRGTLVTVSSEPKSSDKTHTCPPCPAPPVAGPSVFLFPPKPKDTLMISRTPEVTCVVVDVKHEDPEVKFNWYVDGVEVHNAKTKPREEQYNSTYRVVSVLTVLHQDWLNGKEYKCKVSNKALPAPIEKTISKAKGQPREPQVYTLPPSREQMTKNQVKLTCLVKGFYPSDIAVEWESNGQPENNYKTTPPVLDSDGSFFLYSKLTVDKSRWQQGNVFSCSVLHEALHSHYTQKSLSLSPGK
light: not shown
- IL-2 secretion (ELISA of culture supernatants) from SEB-stimulated human PBMC treated 24 hours, versus anti-RSV isotype-control bivalent antibody XENP15074: 4.1 fold
- IL-2 secretion (ELISA) from SEB-stimulated human PBMC, versus a mixture of the monovalent component antibodies XENP20111 (anti-PD1 scFv-Fc) and XENP20059 (anti-CTLA4 Fab-Fc): 1.6 fold
- IL-2 secretion (ELISA) from SEB-stimulated human PBMC, versus the bivalent anti-PD1 antibody XENP16432: 1.5 fold
